Data on three substances can be found in publication PMC4570711.

The assay concerns the target human TrkA receptor (human) (UniProt P04629).
Chain of UniProt P04629 (P04629 33-796): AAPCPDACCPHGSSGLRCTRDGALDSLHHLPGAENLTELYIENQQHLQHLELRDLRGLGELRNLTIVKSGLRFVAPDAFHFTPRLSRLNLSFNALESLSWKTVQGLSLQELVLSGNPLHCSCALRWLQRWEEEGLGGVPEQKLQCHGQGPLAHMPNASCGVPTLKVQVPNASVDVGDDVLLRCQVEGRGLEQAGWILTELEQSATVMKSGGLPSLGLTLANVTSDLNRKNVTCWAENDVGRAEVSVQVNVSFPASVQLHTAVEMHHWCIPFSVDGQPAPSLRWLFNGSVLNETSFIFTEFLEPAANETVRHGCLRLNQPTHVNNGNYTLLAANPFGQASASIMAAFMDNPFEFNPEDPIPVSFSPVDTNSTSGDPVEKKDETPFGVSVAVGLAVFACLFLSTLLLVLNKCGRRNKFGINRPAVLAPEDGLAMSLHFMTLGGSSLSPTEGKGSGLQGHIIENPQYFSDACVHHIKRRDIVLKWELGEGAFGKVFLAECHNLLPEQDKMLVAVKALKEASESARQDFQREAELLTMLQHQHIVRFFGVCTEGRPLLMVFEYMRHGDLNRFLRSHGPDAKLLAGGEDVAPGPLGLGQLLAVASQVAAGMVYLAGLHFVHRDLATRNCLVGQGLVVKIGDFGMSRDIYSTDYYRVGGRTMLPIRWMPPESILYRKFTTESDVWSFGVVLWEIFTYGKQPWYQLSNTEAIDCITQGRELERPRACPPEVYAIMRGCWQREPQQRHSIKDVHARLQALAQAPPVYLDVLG
Regarding “human Nerve Growth Factor P61S mutant (ligand)”, the TF1 cell proliferation, C50 (concentration of hNGF giving half of the maximum effect; 0.1–200 ng/ml) came out at 4.3 ng/mL. With “human Nerve Growth Factor P61S R100E double mutant (ligand)” the figure was 8.1 ng/mL. With “human Nerve Growth Factor R100E mutant ("painless" hNGF) (from UniProt P01138 122-241) (ligand)” the figure was 10.9 ng/mL.
